According to the supplement of paper PMC7125110:
± gives the standard error. For some assays here: Variants at the floor of the assay were thinned out.

B1: glmS ribozyme (parent)
chain: AUAAAAGCGCCAGAACUACAGAAAUGUAGUUGACGAGGAGGAGGUUUAUCGAAUUUUCGGCGGAUGCCUCCAAA

Key:
Conditions in all cases: with glucosamine-6-phosphate
glucosamine-6-phosphate [1] = variants of: B1; test: kcat; higher = faster cleavage; RNA array
Outline: (§1)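 Tiles of sequenced MiSeq chips were imaged over ~14 h at 37 °C. On them, barcoded ribozyme variants had been transcribed in situ by E. coli RNA polymerase and were tracked via a hybridised Cy3 probe while glucosamine-6-phosphate (40 μM to 10 mM) in HEPES/KCl/Mg(OAc)2 buffer flowed in. Per-tile medians, normalised to baseline and to non-cleaving reference variants, were fit to one- or two-exponential decays for kobs, and weighted Michaelis–Menten fits gave kcat and KM.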

glucosamine-6-phosphate [2] = variants of: B1; test: KM; higher = weaker cofactor use; RNA array
Outline: as §1

glucosamine-6-phosphate [3] = variants of: B1; test: self-cleavage kobs at 40 uM GlcN6P; higher = faster cleavage; RNA array
Outline: as §1

glucosamine-6-phosphate [4] = variants of: B1; test: self-cleavage kobs at 160 uM GlcN6P; higher = faster cleavage; RNA array
Outline: as §1

glucosamine-6-phosphate [5] = variants of: B1; test: self-cleavage kobs at 640 uM GlcN6P; higher = faster cleavage; RNA array
Outline: as §1

glucosamine-6-phosphate [6] = variants of: B1; test: self-cleavage kobs at 2500 uM GlcN6P; higher = faster cleavage; RNA array
Outline: as §1

glucosamine-6-phosphate [7] = variants of: B1; test: self-cleavage kobs at 10000 uM GlcN6P; higher = faster cleavage; RNA array
Outline: as §1

Variant | kcat (glucosamine-6-phosphate [1]) [s⁻¹] | KM (glucosamine-6-phosphate [2]) [µM] | self-cleavage kobs at 40 uM GlcN6P (glucosamine-6-phosphate [3]) [s⁻¹] | self-cleavage kobs at 160 uM GlcN6P (glucosamine-6-phosphate [4]) [s⁻¹] | self-cleavage kobs at 640 uM GlcN6P (glucosamine-6-phosphate [5]) [s⁻¹] | self-cleavage kobs at 2500 uM GlcN6P (glucosamine-6-phosphate [6]) [s⁻¹] | self-cleavage kobs at 10000 uM GlcN6P (glucosamine-6-phosphate [7]) [s⁻¹]
A39G U46C | 0.00815 ± 0.0014 | 946 ± 240 | 0.000292 ± 6.4e-05 | 0.00135 ± 0.00039 | 0.00369 ± 0.00073 | 0.0069 ± 0.0015 | 0.00601 ± 0.0018
A42G A52G | 0.00211 ± 0.00034 | 2550 ± 600 | – | 0.000117 ± 1.7e-05 | 0.000471 ± 4.8e-05 | 0.000991 ± 8.9e-05 | 0.00187 ± 0.00037
C58G G62U C70U | 2.66e-05 ± 1.1e-05 | – | – | – | 4.86e-05 ± 2.1e-05 | – | –
G29U U65G | 0.00182 ± 0.0005 | 4450 ± 1800 | 3.41e-05 ± 1.4e-05 | 8.11e-05 ± 1.6e-05 | 0.000188 ± 3e-05 | 0.000739 ± 0.0001 | 0.00124 ± 0.00017
G40A A42U | 7.24e-05 ± 1.6e-05 | – | – | – | – | 7.53e-05 ± 1.2e-05 | 5.75e-05 ± 1.2e-05
A53C C67U | 0.00119 ± 0.00012 | 1500 ± 230 | 4e-05 ± 6.8e-06 | 0.000109 ± 1e-05 | 0.000355 ± 3.8e-05 | 0.000692 ± 8.1e-05 | 0.00108 ± 0.00011
C68U C71A | 1.12e-05 ± 6.7e-07 | – | – | – | – | – | –
C61U | 1.4e-05 ± 3.1e-06 | – | < 1e-05 | – | – | 2.23e-05 ± 2.6e-06 | 1.19e-05 ± 1.4e-06
A48U G51A | 1.23e-05 ± 5.9e-06 | – | < 1e-05 | – | – | – | < 1e-05
G13U U56C | 0.000107 ± 3.8e-05 | – | < 1e-05 | – | 9.36e-05 ± 1.9e-05 | 7.63e-05 ± 1.5e-05 | 0.000214 ± 4.4e-05
C16A U45A | 0.00475 ± 0.0015 | 3620 ± 1600 | 7.33e-05 ± 1.3e-05 | 0.000133 ± 3.5e-05 | 0.000781 ± 0.00013 | 0.00222 ± 0.00037 | 0.00331 ± 0.00052
G32A A64U | < 1e-05 | – | < 1e-05 | < 1e-05 | < 1e-05 | – | –
C16U U45G | 0.00669 ± 0.00062 | 2070 ± 280 | 0.000135 ± 2.4e-05 | 0.000468 ± 0.00016 | 0.00156 ± 0.00026 | 0.00321 ± 0.00074 | 0.00593 ± 0.001
G37U C67G | < 1e-05 | – | – | – | – | – | < 1e-05
A36C U46C | < 1e-05 | – | < 1e-05 | – | < 1e-05 | – | < 1e-05
G44A U45A | 0.00079 ± 0.0001 | 3190 ± 750 | – | – | 0.000128 ± 4.2e-05 | 0.000439 ± 0.00012 | 0.000579 ± 0.0001
